Target: FITC-labeled bovine type-1 collagen (Chondrex, Cat# 4001) (UniProt P02453)
Sequence (P02453 162-1217, chain 1 of 2): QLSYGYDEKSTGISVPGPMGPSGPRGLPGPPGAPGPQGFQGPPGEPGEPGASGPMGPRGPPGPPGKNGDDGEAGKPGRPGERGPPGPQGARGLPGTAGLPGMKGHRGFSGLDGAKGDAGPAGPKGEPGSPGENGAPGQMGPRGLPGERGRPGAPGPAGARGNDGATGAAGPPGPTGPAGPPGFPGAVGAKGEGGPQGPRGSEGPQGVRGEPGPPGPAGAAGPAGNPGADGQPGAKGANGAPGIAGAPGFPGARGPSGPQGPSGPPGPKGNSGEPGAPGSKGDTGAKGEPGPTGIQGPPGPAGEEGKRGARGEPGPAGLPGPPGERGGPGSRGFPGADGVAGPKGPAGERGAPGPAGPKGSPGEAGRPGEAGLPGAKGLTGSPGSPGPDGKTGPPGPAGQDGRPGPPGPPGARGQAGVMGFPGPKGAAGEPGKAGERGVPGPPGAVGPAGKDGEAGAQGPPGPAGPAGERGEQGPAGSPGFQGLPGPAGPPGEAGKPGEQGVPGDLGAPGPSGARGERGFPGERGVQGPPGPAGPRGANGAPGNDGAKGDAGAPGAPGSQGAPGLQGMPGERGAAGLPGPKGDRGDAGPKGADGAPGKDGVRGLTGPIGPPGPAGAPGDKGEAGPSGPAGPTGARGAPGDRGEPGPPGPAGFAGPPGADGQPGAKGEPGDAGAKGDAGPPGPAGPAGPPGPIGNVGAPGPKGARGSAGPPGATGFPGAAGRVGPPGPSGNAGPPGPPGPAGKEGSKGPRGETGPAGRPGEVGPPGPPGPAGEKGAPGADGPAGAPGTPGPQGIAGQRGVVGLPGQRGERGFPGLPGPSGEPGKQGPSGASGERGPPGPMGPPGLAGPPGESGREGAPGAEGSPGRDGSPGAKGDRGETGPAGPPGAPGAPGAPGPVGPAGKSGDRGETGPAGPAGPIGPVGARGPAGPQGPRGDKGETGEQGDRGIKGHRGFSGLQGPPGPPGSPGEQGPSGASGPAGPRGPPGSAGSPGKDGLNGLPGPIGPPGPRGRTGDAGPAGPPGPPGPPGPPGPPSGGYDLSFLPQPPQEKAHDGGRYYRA
Sequence (P02453 other isoform, or with tags, fused parts or gaps, chain 2 of 2): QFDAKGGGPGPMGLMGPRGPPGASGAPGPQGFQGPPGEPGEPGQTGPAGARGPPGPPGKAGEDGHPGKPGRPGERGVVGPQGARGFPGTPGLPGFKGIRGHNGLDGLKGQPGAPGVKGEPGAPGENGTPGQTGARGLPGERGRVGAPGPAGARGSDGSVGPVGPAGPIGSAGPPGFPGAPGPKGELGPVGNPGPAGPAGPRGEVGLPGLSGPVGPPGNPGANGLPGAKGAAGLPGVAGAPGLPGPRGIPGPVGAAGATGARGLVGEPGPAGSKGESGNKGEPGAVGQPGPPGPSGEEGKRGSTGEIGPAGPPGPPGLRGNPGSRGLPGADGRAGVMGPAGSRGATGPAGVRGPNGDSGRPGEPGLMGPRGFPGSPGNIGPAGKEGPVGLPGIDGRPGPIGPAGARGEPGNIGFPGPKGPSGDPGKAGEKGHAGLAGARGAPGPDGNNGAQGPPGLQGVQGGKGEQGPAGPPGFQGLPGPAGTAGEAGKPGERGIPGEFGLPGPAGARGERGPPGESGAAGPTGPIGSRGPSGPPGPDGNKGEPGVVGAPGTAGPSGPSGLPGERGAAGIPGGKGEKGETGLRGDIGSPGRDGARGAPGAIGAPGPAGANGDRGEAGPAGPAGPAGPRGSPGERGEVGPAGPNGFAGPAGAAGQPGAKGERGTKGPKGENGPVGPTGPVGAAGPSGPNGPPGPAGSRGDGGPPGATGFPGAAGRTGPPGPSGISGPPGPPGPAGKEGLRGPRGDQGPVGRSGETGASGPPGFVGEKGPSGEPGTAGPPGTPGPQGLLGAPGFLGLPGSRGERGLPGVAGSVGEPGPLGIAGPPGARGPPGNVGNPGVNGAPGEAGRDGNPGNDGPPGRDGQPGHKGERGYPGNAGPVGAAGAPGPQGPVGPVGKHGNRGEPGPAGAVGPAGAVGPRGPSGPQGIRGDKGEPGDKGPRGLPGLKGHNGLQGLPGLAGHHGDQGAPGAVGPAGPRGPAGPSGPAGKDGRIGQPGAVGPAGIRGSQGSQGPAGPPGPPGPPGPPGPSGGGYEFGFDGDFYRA

## trypsin (TPCK-treated)
  collagen degradation on SDS PAGE: did not show degradation of type-1 collagen

From patent US20190233808
